Measurements from PMC9482650, “Quantitative fragmentomics allow affinity mapping of interactomes” (Nature Communications, 2022).

T1: SIPA1L2, Q9P2F8
T1 sequence (Q9P2F8 945-1036, limits assumed, looked up): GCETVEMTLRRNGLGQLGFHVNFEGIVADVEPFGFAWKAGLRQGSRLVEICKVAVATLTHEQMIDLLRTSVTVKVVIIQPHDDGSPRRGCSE

T2: PTPN13_1, Q12923
T2 sequence (Q12923 1088-1188, limits assumed, looked up): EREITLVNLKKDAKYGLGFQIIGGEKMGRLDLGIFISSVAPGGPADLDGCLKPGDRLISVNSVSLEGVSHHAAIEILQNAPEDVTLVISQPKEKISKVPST

T3: MPP2, Q14168
T3 sequence (Q14168 180-250, limits assumed, looked up): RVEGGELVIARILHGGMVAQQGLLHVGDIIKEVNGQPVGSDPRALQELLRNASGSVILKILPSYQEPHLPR

T4: MPDZ_5, O75970
T4 sequence (O75970 695-796, limits assumed, looked up): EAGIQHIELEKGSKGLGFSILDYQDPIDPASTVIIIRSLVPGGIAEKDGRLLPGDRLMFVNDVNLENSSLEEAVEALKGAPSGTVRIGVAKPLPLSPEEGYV

T5: CARD11, Q9BXL7
T5 sequence (Q9BXL7 662-765, limits assumed, looked up): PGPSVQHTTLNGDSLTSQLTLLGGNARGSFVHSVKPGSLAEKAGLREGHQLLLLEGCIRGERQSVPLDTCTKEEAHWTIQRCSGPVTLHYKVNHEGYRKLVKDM

T6: FRMPD1, Q5SYB0
T6 sequence (Q5SYB0 52-145, limits assumed, looked up): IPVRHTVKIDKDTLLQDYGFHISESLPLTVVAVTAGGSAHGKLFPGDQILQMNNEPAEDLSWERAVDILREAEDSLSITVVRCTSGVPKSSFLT

T7: NHERF3_4, Q5T2W1
T7 sequence (Q5T2W1 373-468, limits assumed, looked up): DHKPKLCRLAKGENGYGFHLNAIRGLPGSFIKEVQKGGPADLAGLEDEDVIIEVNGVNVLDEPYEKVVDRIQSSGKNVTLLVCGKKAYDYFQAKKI

T8: SNTG2, Q9NY99
T8 sequence (Q9NY99 68-166, limits assumed, looked up): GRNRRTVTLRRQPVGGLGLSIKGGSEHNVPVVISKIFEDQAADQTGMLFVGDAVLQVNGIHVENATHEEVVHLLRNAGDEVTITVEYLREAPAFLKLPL

T9: LRRC7, Q96NW7
T9 sequence (Q96NW7 1440-1537, limits assumed, looked up): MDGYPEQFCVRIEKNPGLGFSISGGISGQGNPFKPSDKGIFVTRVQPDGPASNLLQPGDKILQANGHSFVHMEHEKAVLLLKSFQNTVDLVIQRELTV

T10: HTRA4, P83105
T10 sequence (P83105 378-476, limits assumed, looked up): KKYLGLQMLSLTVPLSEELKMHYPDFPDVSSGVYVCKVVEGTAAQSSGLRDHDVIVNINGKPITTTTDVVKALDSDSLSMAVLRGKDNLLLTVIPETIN

T11: SNTB1, Q13884
T11 sequence (Q13884 107-205, limits assumed, looked up): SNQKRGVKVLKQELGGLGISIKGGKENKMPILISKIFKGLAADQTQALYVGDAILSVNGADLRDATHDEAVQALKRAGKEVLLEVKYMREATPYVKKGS


Legend:
Assay in all cases: holdup assay
Parameters in all cases: key: below the threshold = too weak to quantify, mostly under pKd 3.1 to 4
Details in all cases: plain residues with an end cap or a label only (N-terminal biotin on a linker: ado-ado)
NHERF4_1, Q86UT5-2 = target: NHERF4_1, Q86UT5-2
NHERF4_1, Q86UT5-2, sequence (Q86UT5 other isoform, or with tags, fused parts or gaps): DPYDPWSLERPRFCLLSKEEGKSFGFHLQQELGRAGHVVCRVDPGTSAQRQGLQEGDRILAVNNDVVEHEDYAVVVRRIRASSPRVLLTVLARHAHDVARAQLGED

SIPA1L2, Q9P2F8 = target: T1, SIPA1L2, Q9P2F8
MAGI3_2, Q5TCQ9 = target: MAGI3_2, Q5TCQ9
MAGI3_2, Q5TCQ9, sequence (Q5TCQ9 398-503): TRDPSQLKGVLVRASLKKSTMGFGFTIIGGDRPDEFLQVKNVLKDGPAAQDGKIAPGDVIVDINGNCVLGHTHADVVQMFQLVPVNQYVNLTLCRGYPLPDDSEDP

GRASP, Q7Z6J2 = target: GRASP, Q7Z6J2
GRASP, Q7Z6J2, sequence (Q7Z6J2 96-193): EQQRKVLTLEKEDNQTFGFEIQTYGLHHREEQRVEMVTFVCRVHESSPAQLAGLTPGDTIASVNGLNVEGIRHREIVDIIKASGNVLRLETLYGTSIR

GRIP2_3, Q9C0E4 = target: GRIP2_3, Q9C0E4
GRIP2_3, Q9C0E4, sequence (Q9C0E4 238-339): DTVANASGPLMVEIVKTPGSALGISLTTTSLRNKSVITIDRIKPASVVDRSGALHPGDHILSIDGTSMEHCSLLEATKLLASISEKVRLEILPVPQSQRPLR

PTPN13_1, Q12923 = target: T2, PTPN13_1, Q12923
Inadl_5, Q8NI35 = target: Inadl_5, Q8NI35
Inadl_5, Q8NI35, sequence (Q8NI35 673-780): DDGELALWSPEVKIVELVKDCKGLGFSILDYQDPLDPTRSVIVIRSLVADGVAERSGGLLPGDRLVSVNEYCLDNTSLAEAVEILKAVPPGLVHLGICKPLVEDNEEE

FRMPD2_2, Q68DX3 = target: FRMPD2_2, Q68DX3
FRMPD2_2, Q68DX3, sequence (Q68DX3 944-1038): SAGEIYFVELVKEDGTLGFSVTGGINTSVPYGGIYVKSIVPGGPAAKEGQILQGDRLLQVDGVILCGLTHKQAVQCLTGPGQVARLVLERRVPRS

MPP2, Q14168 = target: T3, MPP2, Q14168
MPDZ_5, O75970 = target: T4, MPDZ_5, O75970
CARD11, Q9BXL7 = target: T5, CARD11, Q9BXL7
FRMPD1, Q5SYB0 = target: T6, FRMPD1, Q5SYB0
NHERF3_4, Q5T2W1 = target: T7, NHERF3_4, Q5T2W1
SNTG2, Q9NY99 = target: T8, SNTG2, Q9NY99
Inadl_1, Q8NI35 = target: Inadl_1, Q8NI35
Inadl_1, Q8NI35, sequence (Q8NI35 113-229): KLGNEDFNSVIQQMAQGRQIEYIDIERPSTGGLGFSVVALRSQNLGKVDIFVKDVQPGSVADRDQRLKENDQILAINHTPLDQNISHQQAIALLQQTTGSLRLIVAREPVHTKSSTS

DLG4_3, P78352 = target: DLG4_3, P78352
DLG4_3, P78352, sequence (P78352 306-403): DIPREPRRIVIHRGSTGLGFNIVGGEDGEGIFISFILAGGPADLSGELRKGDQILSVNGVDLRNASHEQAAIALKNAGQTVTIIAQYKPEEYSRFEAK

DLG4_2, P78352 = target: DLG4_2, P78352
DLG4_2, P78352, sequence (P78352 155-259): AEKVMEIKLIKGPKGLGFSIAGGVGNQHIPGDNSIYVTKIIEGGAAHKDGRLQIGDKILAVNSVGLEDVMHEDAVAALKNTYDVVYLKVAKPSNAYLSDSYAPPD

LRRC7, Q96NW7 = target: T9, LRRC7, Q96NW7
DLG1_2, Q12959 = target: DLG1_2, Q12959
DLG1_2, Q12959, sequence (Q12959 314-412): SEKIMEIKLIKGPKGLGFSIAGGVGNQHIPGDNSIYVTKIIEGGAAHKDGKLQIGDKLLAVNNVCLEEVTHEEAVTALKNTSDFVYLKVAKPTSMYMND

NHERF2_2, Q15599 = target: NHERF2_2, Q15599
NHERF2_2, Q15599, sequence (Q15599 142-238): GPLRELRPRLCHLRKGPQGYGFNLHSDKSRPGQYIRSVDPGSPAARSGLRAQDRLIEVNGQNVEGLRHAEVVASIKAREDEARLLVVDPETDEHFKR

HTRA1, Q92743 = target: HTRA1, Q92743
HTRA1, Q92743, sequence (Q92743 360-477): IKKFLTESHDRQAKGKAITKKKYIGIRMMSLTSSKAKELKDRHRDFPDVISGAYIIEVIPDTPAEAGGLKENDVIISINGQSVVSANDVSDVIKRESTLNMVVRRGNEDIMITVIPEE

HTRA4, P83105 = target: T10, HTRA4, P83105
SNTB1, Q13884 = target: T11, SNTB1, Q13884
TJP1_3, Q07157 = target: TJP1_3, Q07157
TJP1_3, Q07157, sequence (Q07157 416-512): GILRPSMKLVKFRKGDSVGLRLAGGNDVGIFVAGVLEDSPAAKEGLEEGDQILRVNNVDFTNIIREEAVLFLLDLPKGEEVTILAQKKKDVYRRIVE

PICK1, Q9NRD5 = target: PICK1, Q9NRD5
PICK1, Q9NRD5, sequence (Q9NRD5 17-115): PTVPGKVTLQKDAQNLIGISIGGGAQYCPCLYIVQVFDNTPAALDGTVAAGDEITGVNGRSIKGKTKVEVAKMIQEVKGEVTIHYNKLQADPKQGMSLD

LAP2, Q96RT1 = target: LAP2, Q96RT1
LAP2, Q96RT1, sequence (Q96RT1 other isoform, or with tags, fused parts or gaps): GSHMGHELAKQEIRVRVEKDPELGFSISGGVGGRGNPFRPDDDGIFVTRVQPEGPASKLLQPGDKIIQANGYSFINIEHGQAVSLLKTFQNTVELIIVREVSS

Binder	pKd (NHERF4_1, Q86UT5-2)	pKd (SIPA1L2, Q9P2F8)	pKd (MAGI3_2, Q5TCQ9)	pKd (GRASP, Q7Z6J2)	pKd (GRIP2_3, Q9C0E4)	pKd (PTPN13_1, Q12923)	pKd (Inadl_5, Q8NI35)	pKd (FRMPD2_2, Q68DX3)	pKd (MPP2, Q14168)	pKd (MPDZ_5, O75970)	pKd (CARD11, Q9BXL7)	pKd (FRMPD1, Q5SYB0)	pKd (NHERF3_4, Q5T2W1)	pKd (SNTG2, Q9NY99)	pKd (Inadl_1, Q8NI35)	pKd (DLG4_3, P78352)	pKd (DLG4_2, P78352)	pKd (LRRC7, Q96NW7)	pKd (DLG1_2, Q12959)	pKd (NHERF2_2, Q15599)	other results
EWTDERQSKV [GAB3, Q8WWW8]	below the threshold	below the threshold	3.6	3.84	below the threshold	below the threshold	below the threshold	3.52	below the threshold	below the threshold	below the threshold	below the threshold	below the threshold	3.88	below the threshold	below the threshold	4.03	below the threshold	4.01	3.8	pKd (HTRA1, Q92743): below the threshold; pKd (HTRA4, P83105): below the threshold; pKd (SNTB1, Q13884): 4.62; pKd (TJP1_3, Q07157): below the threshold; pKd (PICK1, Q9NRD5): below the threshold; pKd (LAP2, Q96RT1): 3.56
TGLWKSETTV [ADGRA2, Q96PE1]	below the threshold	below the threshold	5.6	3.72	below the threshold	below the threshold	below the threshold	3.51	below the threshold	below the threshold	below the threshold	below the threshold	below the threshold	4.14	below the threshold	4.47	5.22	3.56	5.26	below the threshold	pKd (HTRA1, Q92743): 4.27; pKd (HTRA4, P83105): below the threshold; pKd (SNTB1, Q13884): 4.55; pKd (TJP1_3, Q07157): below the threshold; pKd (PICK1, Q9NRD5): below the threshold; pKd (LAP2, Q96RT1): 3.7
HLRQQGSVEV [EPHB6, O15197]	3.71	below the threshold	below the threshold	below the threshold	below the threshold	below the threshold	below the threshold	below the threshold	below the threshold	below the threshold	below the threshold	below the threshold	below the threshold	below the threshold	below the threshold	below the threshold	3.72	below the threshold	3.52	below the threshold	pKd (HTRA1, Q92743): 4.59; pKd (HTRA4, P83105): 4.39; pKd (SNTB1, Q13884): below the threshold; pKd (TJP1_3, Q07157): below the threshold; pKd (PICK1, Q9NRD5): below the threshold; pKd (LAP2, Q96RT1): below the threshold

Further lines, with some results ahead:

pKd (NHERF4_1, Q86UT5-2)	pKd (SIPA1L2, Q9P2F8)	pKd (MAGI3_2, Q5TCQ9)	pKd (GRASP, Q7Z6J2)	pKd (GRIP2_3, Q9C0E4)	pKd (PTPN13_1, Q12923)	pKd (Inadl_5, Q8NI35)	pKd (FRMPD2_2, Q68DX3)	pKd (MPP2, Q14168)	pKd (MPDZ_5, O75970)	pKd (CARD11, Q9BXL7)	pKd (FRMPD1, Q5SYB0)	pKd (NHERF3_4, Q5T2W1)	pKd (SNTG2, Q9NY99)	pKd (Inadl_1, Q8NI35)	pKd (DLG4_3, P78352)	pKd (DLG4_2, P78352)	pKd (LRRC7, Q96NW7)	pKd (DLG1_2, Q12959)	pKd (NHERF2_2, Q15599)	Binder	other results
below the threshold	below the threshold	4.38	4.51	below the threshold	below the threshold	below the threshold	3.97	below the threshold	below the threshold	below the threshold	below the threshold	below the threshold	below the threshold	below the threshold	3.59	3.88	below the threshold	3.99	3.59	NLQEHSTTSV [RSBN1, Q5VWQ0]	pKd (HTRA1, Q92743): 3.74; pKd (HTRA4, P83105): below the threshold; pKd (SNTB1, Q13884): 3.99; pKd (TJP1_3, Q07157): below the threshold; pKd (PICK1, Q9NRD5): below the threshold; pKd (LAP2, Q96RT1): 3.72
below the threshold	below the threshold	below the threshold	3.98	below the threshold	below the threshold	below the threshold	below the threshold	below the threshold	below the threshold	below the threshold	below the threshold	below the threshold	below the threshold	below the threshold	below the threshold	below the threshold	below the threshold	below the threshold	below the threshold	FTLPAESSEI [PLEKHG7, Q6ZR37]	pKd (HTRA1, Q92743): 3.52; pKd (HTRA4, P83105): 3.5; pKd (SNTB1, Q13884): below the threshold; pKd (TJP1_3, Q07157): below the threshold; pKd (PICK1, Q9NRD5): 3.99; pKd (LAP2, Q96RT1): below the threshold
